Broadly, the Kd is the equilibrium constant for the complex coming apart.

Data set [1] concerns the target ICAM-1 (endogenous, TNFalpha-induced) (UniProt P05362 P05362:28-532). In words: flow; TNFalpha-stimulated HMEC-1 cells, 37 C 30 min, yeast tRNA 200 ug/mL pre-treatment, n=3. The following applies: tags: HMEC-1 cells stimulated with TNFalpha 48 h; label: 5'-Alexa Fluor 488. On the procedure:
HMEC-1 cells were stimulated with TNFalpha for 48h to induce ICAM-1 expression.

Data set [2] deals with T1, ICAM-1 (Homo sapiens, UniProt P05362 P05362:28-532). In words: flow; COS7-ICAM-1 cells, 37 C 30 min, yeast tRNA 200 ug/mL pre-treatment, n=6. The following applies: tags: full-length human ICAM-1 cDNA (pCMV6-ICAM-1) transiently expressed in COS7 cells; label: 5'-Alexa Fluor 488.
T1 sequence (P05362 28-532, one chain of several): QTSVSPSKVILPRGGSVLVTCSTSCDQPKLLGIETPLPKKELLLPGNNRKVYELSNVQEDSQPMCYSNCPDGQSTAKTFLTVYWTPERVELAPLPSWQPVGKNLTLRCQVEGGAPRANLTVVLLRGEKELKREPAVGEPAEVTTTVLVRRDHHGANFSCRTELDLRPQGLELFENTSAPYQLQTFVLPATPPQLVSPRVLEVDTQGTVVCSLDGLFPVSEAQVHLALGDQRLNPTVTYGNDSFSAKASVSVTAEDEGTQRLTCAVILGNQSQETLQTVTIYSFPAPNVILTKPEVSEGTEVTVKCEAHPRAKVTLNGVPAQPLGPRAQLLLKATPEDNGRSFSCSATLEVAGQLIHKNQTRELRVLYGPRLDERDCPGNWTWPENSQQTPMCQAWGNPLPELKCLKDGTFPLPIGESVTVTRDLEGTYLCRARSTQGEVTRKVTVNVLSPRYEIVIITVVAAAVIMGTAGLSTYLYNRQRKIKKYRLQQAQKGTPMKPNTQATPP
In data set [3] the target is T1, ICAM-1. In words: RT-qPCR cell binding on COS7-ICAM-1, 37 C 15 min, yeast tRNA 200 ug/mL pre-treatment. The following applies: tags: full-length human ICAM-1 cDNA (pCMV6-ICAM-1) transiently expressed in COS7 cells. The procedure:
The same experiment was carried out with the unrelated aptamer A10, as negative control (sequence disclosed in Lupold S. E. et al., Cancer Res. 2002, 62, 4029-4033). The binding was evaluated by RT-qPCR.
Background: Quantitative PCR measures a nucleic acid by following its amplification.

Data set [4] concerns the target T1, ICAM-1. In words: RT-qPCR cell binding, 50 nM RNA, 37 C 15 min. The following applies: tags: full-length human ICAM-1 cDNA (pCMV6-ICAM-1) transiently expressed in COS7 cells. On the procedure: To the aim of testing if the short aptamer 10.T (SEQ ID NO: 1) contained the active site of the original molecule 12c-10 (SEQ ID NO: 2) and preserved high binding and affinity to COS7-ICAM-1, binding assays were performed maintaining the same conditions used for long aptamers screening.
The RNA sequence 10.T was incubated at 50 nM, as final concentration, for 15 minutes at 37° C. on COS7-WT and COS7-ICAM-1. The ratio comparing binding values of COS7-ICAM-1 over COS7-WT (fold change) is reported in FIG. 5, showing a value of 2.2.

Data set [5] has as its target T1, ICAM-1. In words: RT-qPCR cell binding, 50 nM RNA, 37 C 15 min, yeast tRNA pre-treatment. The following applies: tags: full-length human ICAM-1 cDNA (pCMV6-ICAM-1) transiently expressed in COS7 cells. On the procedure:
Following the analysis of the enriched sequences, binding assays by RT-qPCR were performed in order to select the sequences able to bind COS7-ICAM-1. Essentially, DNA sequences were amplified and transcribed. Then, RNA sequences were incubated at 50 nM, as final concentration, for 15 minutes at 37° C., after pre-treatment with yeast tRNA 200 μg/mL, on COS7-WT and COS7-ICAM-1. Following incubation, cells were washed 3 times with PBS and recovered in TRIsure reagent. An RNA sequence used as reference control was spotted in each point for the normalization. A fold ratio was calculated comparing binding values of COS7-ICAM-1 over COS7-WT. Twelve sequences representatives of couples or groups of identical sequences were screened. Those with higher fold ratio were chosen for further analysis performing experimental triplicates.

Chain of ICAM-1 (endogenous, TNFalpha-induced) (P05362 28-532, one chain of several): as above

B1: Alexa488-10.T (ssRNA)
RNA: UCAUGAUACGUUGCGUGAGCAACUGCGGCGCUAAAGUUUGGUUGACUAGUACAUG
modifications: 2'-F pyrimidines; 5'-C12 amino linker
With B1, the Kd in data set [1] was 106 nM; in data set [2], 116 nM.

B2: 10.T (ssRNA)
RNA: UCAUGAUACGUUGCGUGAGCAACUGCGGCGCUAAAGUUUGGUUGACUAGUACAUG
modifications: 2'-F pyrimidines
As to B2, in data set [3], the Kd is 376 nM. Also, the binding signal in data set [4] is 2.2 fold COS7-ICAM-1 over COS7-WT.

B3: 12c-10 (ssRNA)
RNA: GGGAAGAGAAGGACAUAUGAUCAUGAUACGUUGCGUGAGCAACUGCGGCGCUAAAGUUUGGUUGACUAGUACAUGACCACUUGA
modifications: 2'-F pyrimidines
Consider B3, for which the binding signal in data set [5] is 3.13 fold COS7-ICAM-1 over COS7-WT.

The values above are taken from patent publication US20210292762, “ICAM-1 APTAMERS, DIAGNOSTIC AND THERAPEUTIC USES THEREOF” (BRACCO IMAGING S.P.A., published 2021).
